Assay results from IntAct's records for PubMed 18794898.

B1: Indian hedgehog protein (Mus musculus), P97812 (parent)
chain: MSPAWLRPRLRFCLFLLLLLLVPAARGCGPGRVVGSRRRPPRKLVPLAYKQFSPNVPEKTLGASGRYEGKIARSSERFKELTPNYNPDIIFKDEENTGADRLMTQRCKDRLNSLAISVMNQWPGVKLRVTEGWDEDGHHSEESLHYEGRAVDITTSDRDRNKYGLLARLAVEAGFDWVYYESKAHVHCSVKSEHSAAAKTGGCFPAGAQVRLENGERVALSAVKPGDRVLAMGEDGTPTFSDVLIFLDREPNRLRAFQVIETQDPPRRLALTPAHLLFIADNHTEPAAHFRATFASHVQPGQYVLVSGVPGLQPARVAAVSTHVALGSYAPLTRHGTLVVEDVVASCFAAVADHHLAQLAFWPLRLFPSLAWGSWTPSEGVHWYPQMLYRLGRLLLEESTFHPLGMSGAGS
partner: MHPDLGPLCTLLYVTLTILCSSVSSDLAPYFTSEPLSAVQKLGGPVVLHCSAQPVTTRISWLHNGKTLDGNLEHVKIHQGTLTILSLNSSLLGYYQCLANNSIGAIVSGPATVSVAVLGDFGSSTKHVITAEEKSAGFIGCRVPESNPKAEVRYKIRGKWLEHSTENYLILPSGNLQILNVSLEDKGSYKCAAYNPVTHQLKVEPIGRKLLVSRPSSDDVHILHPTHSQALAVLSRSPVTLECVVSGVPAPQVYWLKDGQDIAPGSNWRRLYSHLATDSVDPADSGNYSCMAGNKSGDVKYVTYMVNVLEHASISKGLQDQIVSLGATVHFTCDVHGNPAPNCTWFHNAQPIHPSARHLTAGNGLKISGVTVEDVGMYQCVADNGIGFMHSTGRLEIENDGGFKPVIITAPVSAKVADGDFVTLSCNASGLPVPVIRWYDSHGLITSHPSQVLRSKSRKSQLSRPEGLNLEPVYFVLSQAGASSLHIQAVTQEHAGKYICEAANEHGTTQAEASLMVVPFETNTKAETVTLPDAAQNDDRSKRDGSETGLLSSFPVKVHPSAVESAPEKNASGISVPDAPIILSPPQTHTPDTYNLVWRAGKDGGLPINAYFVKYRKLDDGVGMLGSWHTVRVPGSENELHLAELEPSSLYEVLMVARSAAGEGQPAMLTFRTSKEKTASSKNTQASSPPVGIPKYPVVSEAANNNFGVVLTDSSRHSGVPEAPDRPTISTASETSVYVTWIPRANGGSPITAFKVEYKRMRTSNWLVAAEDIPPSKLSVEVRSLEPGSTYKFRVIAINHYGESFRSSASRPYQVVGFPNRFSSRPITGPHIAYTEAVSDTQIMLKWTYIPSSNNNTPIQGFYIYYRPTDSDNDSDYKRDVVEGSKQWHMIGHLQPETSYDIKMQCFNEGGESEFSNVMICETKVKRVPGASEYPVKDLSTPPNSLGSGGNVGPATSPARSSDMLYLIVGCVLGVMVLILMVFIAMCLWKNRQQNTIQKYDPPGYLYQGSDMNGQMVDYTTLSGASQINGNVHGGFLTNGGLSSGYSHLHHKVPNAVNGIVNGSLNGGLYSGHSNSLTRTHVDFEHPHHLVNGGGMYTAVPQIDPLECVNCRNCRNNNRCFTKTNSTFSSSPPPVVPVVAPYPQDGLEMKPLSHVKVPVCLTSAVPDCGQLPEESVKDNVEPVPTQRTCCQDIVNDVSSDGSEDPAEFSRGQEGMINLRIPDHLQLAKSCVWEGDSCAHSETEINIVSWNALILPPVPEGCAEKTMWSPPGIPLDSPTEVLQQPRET

Variants of: B1
Conditions: with cdon_human CDON

effect of a mutation on the interaction	Variant
disrupting interaction	E131K
